# From article PMC10580930
# What was measured:
# [1] = tested on: C[C@@H](O)[C@H]1C(=O)N2C(C(=O)O)=C(SCCN=CN)C[C@H]12; experiment: purified protein; conditions: phosphate-buffered solution (1x), 50 µM ZnSO4, room temperature
# [2] = tested on: C[C@@H](O)[C@H]1C(=O)N2C(C(=O)O)=C(S[C@@H]3CN[C@H](C(=O)N(C)C)C3)[C@H](C)[C@H]12; experiment: purified protein; conditions: phosphate-buffered solution (1x), 50 µM ZnSO4, room temperature
substance,measurement,setting,value
VIM-2 (Pseudomonas aeruginosa),Km,[1],10.31 µM
same,kcat,[1],11.1 s⁻¹
same,kcat/Km,[1],1.1e+06 M⁻¹ s⁻¹
same,Km,[2],5.37 µM
same,kcat,[2],2.1 s⁻¹
same,kcat/Km,[2],400000 M⁻¹ s⁻¹
